Broadly, the stoichiometry N is the number of molecules, sites or subunits per partner or assembly.

Results on four molecules are retold here after paper PMC8171356 (Nature structural & molecular biology, 2017).

Ends that are not written are not given here. * marks the point of attachment. βGlcNAc = CC(=O)N[C@@H]1[C@@H](O)[C@H](O)[C@@H](CO)O[C@H]1*

First the molecules themselves.
B1: OGA_(cryst) (D175N) (domain or fragment, human)
chain: FLCGVVEGFYGRPWVMEQRKELFRRLQKWELNTYLYAPKDDYKHRMFWREMYSVEEAEQLMTLISAAREYEIEFIYAISPGLDITFSNPKEVSTLKRKLDQVSQFGCRSFALLFDNIDHNMCAADKEVFSSFAHAQVSITNEIYQYLGEPETFLFCPTEYCGTFCYPNVSQSPYLRTVGEKLLPGIEVLWTGPKVVSKEIPVESIEEVSKIIKRAPVIWDNIHANDYDQKRLFLGPYKGRSTELIPRLKGVLTNPNCEFEANYVAIHTLATWYKSNMNGVRKDVVMTDSEDSTVSIQIKLENEGSDEDIETDVLYSPQMALKLALTEWLQEFGVPHQYSSRGGGGSGGGGSGGGGSVTLEDLQLLADLFYLPYEHGPKGAQMLREFQWLRANSSVVSVNCKGKDSEKIEEWRSRAAKFEEMCGLVMGMFTRLSNCANRTILYDMYSYVWDIKSIMSMVKSFVQWLGCRSHSSAQFLIGDQEPWAFRGGLAGEFQRLLPIDGANDLFFQ

The conditions of data set [1]: in vivo; cited from earlier work.
Data set [2] deals with T1, full-length human O-GlcNAcase (hOGA) (human, UniProt O60502 1-916).
T1 sequence (looked up): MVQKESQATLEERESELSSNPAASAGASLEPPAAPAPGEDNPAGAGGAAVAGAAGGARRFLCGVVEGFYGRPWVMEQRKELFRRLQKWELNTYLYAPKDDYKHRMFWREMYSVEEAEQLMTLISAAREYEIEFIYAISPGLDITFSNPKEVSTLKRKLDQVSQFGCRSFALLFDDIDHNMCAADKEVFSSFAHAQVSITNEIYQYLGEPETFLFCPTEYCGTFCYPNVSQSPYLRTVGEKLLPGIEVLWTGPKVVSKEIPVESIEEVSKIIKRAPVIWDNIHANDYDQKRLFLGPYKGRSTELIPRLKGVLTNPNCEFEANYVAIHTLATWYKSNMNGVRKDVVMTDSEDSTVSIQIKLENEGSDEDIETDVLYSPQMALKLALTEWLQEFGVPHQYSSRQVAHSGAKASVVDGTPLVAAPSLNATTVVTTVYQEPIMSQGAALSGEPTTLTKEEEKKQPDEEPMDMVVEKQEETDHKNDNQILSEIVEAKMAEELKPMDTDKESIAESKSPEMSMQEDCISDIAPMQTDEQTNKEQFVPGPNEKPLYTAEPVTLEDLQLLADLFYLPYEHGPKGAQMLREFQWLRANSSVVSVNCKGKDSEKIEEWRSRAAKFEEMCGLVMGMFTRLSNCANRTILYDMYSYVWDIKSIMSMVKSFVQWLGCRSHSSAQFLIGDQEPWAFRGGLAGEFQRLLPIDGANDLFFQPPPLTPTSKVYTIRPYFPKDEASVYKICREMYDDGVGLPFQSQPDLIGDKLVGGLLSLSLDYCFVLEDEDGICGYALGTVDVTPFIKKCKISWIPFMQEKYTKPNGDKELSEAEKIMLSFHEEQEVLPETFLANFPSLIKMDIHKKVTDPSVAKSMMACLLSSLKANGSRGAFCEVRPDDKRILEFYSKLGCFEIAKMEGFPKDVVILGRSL
Description: glycopeptide competition assay.

The data set “OGA_(cryst) (D175N)” addresses B1. Description: crystal structure.
The data set “crystal structure” deals with the molecule itself. The experiment in a line: crystal structure.
The data set “AUC” deals with the molecule itself. Description: AUC.

In the case of `CCN=C1N[C@@H]2[C@@H](O)[C@H](O)[C@@H](CO)O[C@@H]2S1` [thiamet-G], the “blood–brain barrier crossing” value in data set [1] was “can cross the blood–brain barrier”.

Turning to Ac-QLWVDS(βGlcNAc)TPPPG [O-GlcNAcylated p53 peptide Ac-QLWVDS(O-GlcNAc)TPPPG], the binding result (in data set [2]; with OGA_(cryst) (D175N)) was “binds” each time.

In the case of B1, the binding result in “crystal structure” is reported as “binds”.

B2: OGA_(cryst) (truncated hOGA, residues 60-704 with residues 401-552 replaced by a 15-residue glycine-serine linker) (domain or fragment, human)
chain: FLCGVVEGFYGRPWVMEQRKELFRRLQKWELNTYLYAPKDDYKHRMFWREMYSVEEAEQLMTLISAAREYEIEFIYAISPGLDITFSNPKEVSTLKRKLDQVSQFGCRSFALLFDDIDHNMCAADKEVFSSFAHAQVSITNEIYQYLGEPETFLFCPTEYCGTFCYPNVSQSPYLRTVGEKLLPGIEVLWTGPKVVSKEIPVESIEEVSKIIKRAPVIWDNIHANDYDQKRLFLGPYKGRSTELIPRLKGVLTNPNCEFEANYVAIHTLATWYKSNMNGVRKDVVMTDSEDSTVSIQIKLENEGSDEDIETDVLYSPQMALKLALTEWLQEFGVPHQYSSRGGGGSGGGGSGGGGSVTLEDLQLLADLFYLPYEHGPKGAQMLREFQWLRANSSVVSVNCKGKDSEKIEEWRSRAAKFEEMCGLVMGMFTRLSNCANRTILYDMYSYVWDIKSIMSMVKSFVQWLGCRSHSSAQFLIGDQEPWAFRGGLAGEFQRLLPIDGANDLFFQ
As for B2, the “stoichiometry N” value in “AUC” turned out to be 2.
